Experimental data as given in patent US20200157519A1 (IMMUNWORK, published 2020).

Experiments:
[1] = biological target: T1, human fibrin (human fibrinogen coated on the plate and treated with thrombin) (human, UniProt P02671 36-629; P02675 45-491; P02679 27-437); assay: single colony ELISA, OD450 on fibrin divided by OD450 on fibrinogen
T1 construct: Made on the plate: coated human fibrinogen (Sigma) treated with 1.0 U/mL thrombin, CaCl2 and L-cysteine
T1 sequence (looked up) 1: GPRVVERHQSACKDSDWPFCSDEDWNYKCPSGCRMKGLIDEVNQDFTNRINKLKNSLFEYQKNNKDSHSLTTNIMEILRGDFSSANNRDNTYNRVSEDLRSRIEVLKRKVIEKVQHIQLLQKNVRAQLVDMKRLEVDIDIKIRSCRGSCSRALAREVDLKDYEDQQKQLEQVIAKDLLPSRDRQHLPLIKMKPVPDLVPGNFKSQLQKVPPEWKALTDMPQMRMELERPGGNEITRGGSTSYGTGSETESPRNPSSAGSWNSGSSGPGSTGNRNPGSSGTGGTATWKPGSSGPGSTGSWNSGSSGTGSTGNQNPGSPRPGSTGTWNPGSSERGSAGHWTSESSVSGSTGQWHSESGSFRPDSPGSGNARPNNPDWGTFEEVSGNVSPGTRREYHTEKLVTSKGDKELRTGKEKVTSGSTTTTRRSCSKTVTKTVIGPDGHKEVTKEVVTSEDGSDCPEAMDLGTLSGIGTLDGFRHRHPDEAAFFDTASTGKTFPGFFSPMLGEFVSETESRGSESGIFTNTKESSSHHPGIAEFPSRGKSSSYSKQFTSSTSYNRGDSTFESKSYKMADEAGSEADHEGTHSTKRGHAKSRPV
T1 sequence (looked up) 2: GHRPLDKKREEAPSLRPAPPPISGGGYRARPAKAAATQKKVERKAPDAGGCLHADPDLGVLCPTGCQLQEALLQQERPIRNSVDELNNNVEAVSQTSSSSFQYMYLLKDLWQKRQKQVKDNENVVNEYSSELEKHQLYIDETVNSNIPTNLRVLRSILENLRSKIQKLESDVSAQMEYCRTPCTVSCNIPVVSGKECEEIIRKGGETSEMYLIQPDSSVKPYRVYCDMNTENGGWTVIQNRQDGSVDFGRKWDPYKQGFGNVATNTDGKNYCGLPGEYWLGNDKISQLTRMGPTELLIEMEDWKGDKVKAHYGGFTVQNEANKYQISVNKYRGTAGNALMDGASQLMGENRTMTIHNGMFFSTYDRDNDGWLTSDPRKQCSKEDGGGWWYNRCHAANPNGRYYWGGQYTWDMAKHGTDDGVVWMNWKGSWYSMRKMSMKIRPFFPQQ
T1 sequence (looked up) 3: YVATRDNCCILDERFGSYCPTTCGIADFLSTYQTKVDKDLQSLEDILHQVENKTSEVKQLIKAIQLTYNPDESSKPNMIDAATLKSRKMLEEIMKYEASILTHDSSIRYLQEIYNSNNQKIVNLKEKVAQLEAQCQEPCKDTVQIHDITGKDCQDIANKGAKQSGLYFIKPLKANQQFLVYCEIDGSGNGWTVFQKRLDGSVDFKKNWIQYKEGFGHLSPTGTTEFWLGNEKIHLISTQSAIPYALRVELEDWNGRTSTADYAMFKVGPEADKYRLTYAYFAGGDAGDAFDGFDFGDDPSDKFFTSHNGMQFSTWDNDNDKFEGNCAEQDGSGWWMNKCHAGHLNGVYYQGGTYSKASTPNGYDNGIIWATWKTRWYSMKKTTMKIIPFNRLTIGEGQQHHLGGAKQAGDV
Protocol: (§1) E. coli strain ER2738 infected with single-clonal phages each harboring a selected scFv gene in its phagemid was grown in the mid-log phase in 2YT broth (16 g/L tryptone, 10 g/l yeast extract, 5 g/l NaCl, pH 7.0) with 100 μg/ml ampicillin in deep well at 37° C. with shaking. After broth reaching an OD₆₀₀ of 1.0, IPTG was added to a final concentration of 1 μg/ml. The plates were incubated at 37° C. overnight with rigorously shaking. Thereafter, the plates were centrifuged at 4,000 g for 15 minutes at 4° C.
(§2) For soluble scFv binding test, ELISA was carried out. In brief, 96-well Maxisorp 96-well plate (Nunc) was coated with fibrin (0.5 μg/100 μL PBS per well) or a negative control antigen, human fibrinogen, for 18 hours with shaking at 4° C. After treated with 300 μL of blocking buffer for one hour, 100 μL of secreted scFv in the supernatant was mixed with 100 μL of blocking buffer and then added to the coated plate for another one hour. Goat anti-E-tag antibody (conjugated with HRP, 1:4000, Cat. No. AB19400, Abcam) was added to the plate for one hour. TMB substrate (50 μL per well) was added to each well and the absorbance at 450 nm was measured after reactions were stopped by adding 1 N HCl (50 μL per well). The OD₄₅₀ for each well was measured to determine the binding affinity of each scFv clone to fibrin or fibrinogen. For each scFv clone, the OD₄₅₀ value with respect to fibrin was divided by with the OD₄₅₀ value with respect to fibrinogen to obtain an OD₄₅₀ ratio representing the selective binding of said scFv to fibrin over fibrinogen. In the single colony ELISA analysis, a total of 192 phage clones after the 3rd panning round was subjected to the present analysis. Among them, 12 scFv clones that bound to fibrin with an OD₄₅₀ ratio greater than 10 were further characterized by sequencing their scFv-coding gene. Six different DNA sequences were identified. […] The amino acid sequence of an scFv clone D10, which binds to human fibrin with an OD₄₅₀ of 1.3, is shown in SEQ ID NO: 4.

[2] = biological target: T1, human fibrin (human fibrinogen coated …); assay: single colony ELISA, secreted scFv on coated fibrin, anti-E-tag-HRP
Protocol: as §1, §2

[3] = biological target: T1, human fibrin (human fibrinogen coated …); assay: ELISA on fibrin-coated plate, HRP-protein L
Protocol: Each fibrin plate was prepared as follows. 100 μL of TBS containing a final concentration of 1.0 U/mL thrombin (Sigma), 2 mM CaCl, and 7 mM L-cysteine (Merck) was added to the wells of the fibrinogen plate, which was then washed with TBS and blocked with the buffer (5% non-fat dry milk/PBS). After the blocking, 100 μL of antibodies were added to each well, and the plate was incubated at room temperature for 1 hour. The plate was then washed three times, the HRP-conjugated protein L diluted to 1/5000 was added to the wells and incubated for 1 hour at room temperature. The wells were washed three times and added with 100 μL of TMB substrate buffer. 5 minutes later, the color development was stopped with 1 M HCl. The optical density (OD) was measured at 450 nm using a microplate reader.

[4] = biological target: T2, crosslinked human fibrin treated by human factor XIIIa (human, UniProt P02671 36-629; P02675 45-491; P02679 27-437, crosslinked by factor XIIIa); assay: ELISA on crosslinked fibrin plate, HRP-protein L
T2 construct: Coated human fibrinogen treated with thrombin and 0.55 ug factor XIIIa (Zedira) per well; also called crosslinked fibrin
T2 sequence (looked up) 1: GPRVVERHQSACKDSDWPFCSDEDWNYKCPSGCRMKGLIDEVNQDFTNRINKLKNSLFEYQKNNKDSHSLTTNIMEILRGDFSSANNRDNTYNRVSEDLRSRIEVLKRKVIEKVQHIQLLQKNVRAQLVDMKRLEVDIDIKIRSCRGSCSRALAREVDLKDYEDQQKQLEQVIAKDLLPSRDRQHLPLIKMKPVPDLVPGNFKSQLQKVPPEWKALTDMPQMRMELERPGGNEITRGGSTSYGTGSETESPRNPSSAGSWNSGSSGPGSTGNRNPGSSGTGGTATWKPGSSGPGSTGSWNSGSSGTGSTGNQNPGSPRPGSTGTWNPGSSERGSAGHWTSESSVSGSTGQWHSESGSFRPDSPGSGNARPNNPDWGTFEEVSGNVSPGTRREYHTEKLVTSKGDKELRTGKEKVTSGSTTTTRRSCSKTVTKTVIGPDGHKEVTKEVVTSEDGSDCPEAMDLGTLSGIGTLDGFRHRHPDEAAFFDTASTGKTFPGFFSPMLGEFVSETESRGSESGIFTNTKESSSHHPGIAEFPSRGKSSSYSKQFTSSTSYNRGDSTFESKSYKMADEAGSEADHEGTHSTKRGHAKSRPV
T2 sequence (looked up) 2: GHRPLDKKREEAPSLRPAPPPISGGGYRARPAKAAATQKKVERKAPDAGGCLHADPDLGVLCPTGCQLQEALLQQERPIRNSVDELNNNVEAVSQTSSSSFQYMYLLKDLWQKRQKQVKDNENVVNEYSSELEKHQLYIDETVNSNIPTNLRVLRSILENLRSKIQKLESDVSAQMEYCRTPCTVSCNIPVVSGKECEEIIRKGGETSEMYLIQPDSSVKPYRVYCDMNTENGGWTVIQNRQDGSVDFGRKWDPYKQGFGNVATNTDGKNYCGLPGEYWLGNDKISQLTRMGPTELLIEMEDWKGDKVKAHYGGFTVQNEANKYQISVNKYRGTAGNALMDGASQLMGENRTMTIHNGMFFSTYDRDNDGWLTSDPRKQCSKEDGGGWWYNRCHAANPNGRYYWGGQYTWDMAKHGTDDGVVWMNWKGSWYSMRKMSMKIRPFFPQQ
T2 sequence (looked up) 3: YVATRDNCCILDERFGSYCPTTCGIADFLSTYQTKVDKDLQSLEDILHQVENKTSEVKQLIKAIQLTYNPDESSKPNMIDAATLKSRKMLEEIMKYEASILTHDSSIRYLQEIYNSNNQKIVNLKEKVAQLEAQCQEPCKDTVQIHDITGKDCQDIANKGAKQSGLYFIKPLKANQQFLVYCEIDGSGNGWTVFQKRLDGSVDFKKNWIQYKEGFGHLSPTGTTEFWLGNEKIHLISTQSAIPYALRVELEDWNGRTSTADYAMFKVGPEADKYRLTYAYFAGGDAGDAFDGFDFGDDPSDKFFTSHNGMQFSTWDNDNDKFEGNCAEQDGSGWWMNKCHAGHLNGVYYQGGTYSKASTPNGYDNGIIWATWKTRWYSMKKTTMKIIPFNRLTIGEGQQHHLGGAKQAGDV

B1: scFv clone 3C2 (scFv, V domains shown)
VH: EVQLVESGGGLVQPGGSLRLSCAASGFTIGNSSIHWVRQAPGKGLEWVAGIWPYWGSTYYADSVKGRFTISADTSKNTAYLQMNSLRAEDTAVYYCARFGINNDGFMDYWGQGTLVTVSS
VL: DIQMTQSPSSLSASVGDRVTITCRASQDVSGWVAWYQQKPGKAPKLLISSTGSLYSGVPSRFSGSGSGTDFTLTISSLQPEDFATYYCQQYYDFPITFGQGTKVEIKR
notes: Tested as a secreted scFv with E-tag from the phage library
Q: For B1, which “OD450 ratio (fibrin over fibrinogen)” value [1] is on record?
A: Its value is 64.9.

Q: And the OD450_Fibrin [2]?
A: Its OD450_Fibrin is 0.759 OD450.

B2: scFv clone 8F2 (scFv, V domains shown)
VH: EVQLVESGGGLVQPGGSLRLSCAASGFTINNYGIHWVRQAPGKGLEWVAGIWPYWGYTYYADSVKGRFTISADTSKNTAYLQMNSLRAEDTAVYYCARFDSNSYSSYSDGFMDYWGQGTLVTVSS
VL: DIQMTQSPSSLSASVGDRVTITCRASQDVDNSVAWYQQKPGKAPKLLISSARSLYSGVPSRFSGSGSGTDFTLTISSLQPEDFATYYCQQYYNYPITFGQGTKVEIKR
notes: as for B1
Q: Which “OD450 ratio (fibrin over fibrinogen)” value [1] does the source give for B2 here?
A: Its value is 14.4.

Q: What about the OD450_Fibrin [2] of the same binder?
A: The OD450_Fibrin was 0.527 OD450.

B3: phage-displayed 3D5 scFv (scFv)
scFv: DIQMTQSPSSLSASVGDRVTITCRASQDVSNNVAWYQQKPGKAPKLLIFWSPWLYSGVPSRFSGSGSGTDFTLTISSLQPEDFATYYCQQGWDSPVTFGQGTKVEIKRGGGGSGGGGSGGGGSEVQLVESGGGLVQPGGSLRLSCAASGFTISDFGIHWVRQAPGKGLEWVASIWPSGGYTYYADSVKGRFTISADTSKNTAYLQMNSLRAEDTAVYYCARSWFYSWYDYWGQGTLVTVSS
notes: Tested as secreted scFv in culture supernatant, detected through its E-tag
Q: How did the “OD450 ratio (fibrin over fibrinogen)” value [1] turn out when B3 was run?
A: Its value is 377.

Q: What about the OD450_Fibrin [2] of the same binder?
A: The OD450_Fibrin was 0.829 OD450.

B4: scFv clone 7A3 (scFv, V domains shown)
VH: EVQLVESGGGLVQPGGSLRLSCAASGFTINDWSIHWVRQAPGKGLEWVAYIGPFWGSTFYADSVKGRFTISADTSKNTAYLQMNSLRAEDTAVYYCARGYFGFDYWGQGTLVTVSS
VL: DIQMTQSPSSLSASVGDRVTITCRASQDVGGWVAWYQQKPGKAPKLLISSPRSLYSGVPSRFSGSGSGTDFTLTISSLQPEDFATYYCQQYFSSPFTFGQGTKVEIKR
notes: as for B1
Q: With B4 as the binder, how does the “OD450 ratio (fibrin over fibrinogen)” value [1] read?
A: Its value is 20.5.

Q: What about the OD450_Fibrin [2] of the same binder?
A: The OD450_Fibrin was 0.428 OD450.

B5: recombinant anti-fibrin 3D5 antibody (full-length) (antibody, human IgG1, kappa, V domains shown)
VH: EVQLVESGGGLVQPGGSLRLSCAASGFTISDFGIHWVRQAPGKGLEWVASIWPSGGYTYYADSVKGRFTISADTSKNTAYLQMNSLRAEDTAVYYCARSWFYSWYDYWGQGTLVTVSS
VL: DIQMTQSPSSLSASVGDRVTITCRASQDVSNNVAWYQQKPGKAPKLLIFWSPWLYSGVPSRFSGSGSGTDFTLTISSLQPEDFATYYCQQGWDSPVTFGQGTKVEIKR
notes: Expressed from the pG1K vector in Expi293F cells, purified on Protein A
Q: Which results are given for B5?
A: binding result [3]: binds; binding result [4]: binds

B6: recombinant anti-fibrin 102-10 antibody (full-length) (antibody, human IgG1, kappa, V domains shown)
VH: QIQLVQSGPELKKPGETVKISCKASGYTFTNYGMNWVKQAPGKGLKWMGWINTYTGEATYADDFKGRFAFSLETSANTAYVQINNLKNEDTATYFCARLMDYWGQGTSVTVSS
VL: DIQMTQSPSSLSASLGGKVTITCKASQDINKYIAWFQHKPGKGPRLLIHYTSTLQPGIPSRFSGSGSGRDYSFSISNLEPEDLATYYCLQYDNLTWTFGGGTKLEIKR
Q: Does B6 bind [3]?
A: Result: binds

Q: Does B6 bind [4]?
A: Result: binds
